From publication PMC5228590 come the findings set out here.

In this experiment the target is vimentin (mouse (endogenous in MC-3T3 and in primary calvarial osteoblasts of C57/B6J mice)) (UniProt P20152). The experiment can be described thus: co-IP.
Chain of vimentin (mouse (endogenous in MC-3T3 and in primary calvarial osteoblasts of C57/B6J mice)) (P20152 whole entry): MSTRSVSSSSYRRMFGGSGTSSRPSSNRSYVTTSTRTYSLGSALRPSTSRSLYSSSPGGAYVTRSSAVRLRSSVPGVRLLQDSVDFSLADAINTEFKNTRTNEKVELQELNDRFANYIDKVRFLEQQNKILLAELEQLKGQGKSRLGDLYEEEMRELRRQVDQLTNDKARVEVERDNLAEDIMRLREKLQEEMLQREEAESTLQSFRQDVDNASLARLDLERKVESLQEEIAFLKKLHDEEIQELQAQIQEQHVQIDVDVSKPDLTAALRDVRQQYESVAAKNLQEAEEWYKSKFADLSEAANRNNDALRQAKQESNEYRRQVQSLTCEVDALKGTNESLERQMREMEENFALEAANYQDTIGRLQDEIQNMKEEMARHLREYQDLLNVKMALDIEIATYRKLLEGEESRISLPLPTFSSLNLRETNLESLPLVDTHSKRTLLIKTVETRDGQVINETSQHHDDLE

Regarding “receptor protein tyrosine phosphatase β, B9EKR1 25-2312”, the fold increase of the association with IGF-I is 6.7 fold and the percent reduction of the association with the PKCζ pseudosubstrate inhibitor worked out at 62%.
